Assay results from article PMC3957475 (Biochemical Journal, 2014).

T1: Biotinylated GAK (cyclin G-associated kinase) (Homo sapiens, biotin (biotinylated; site and way not stated))
T1 construct: Captured on a CAP chip with the Biotin CAPture kit; the general purification removes the His6 tag
T1 chain: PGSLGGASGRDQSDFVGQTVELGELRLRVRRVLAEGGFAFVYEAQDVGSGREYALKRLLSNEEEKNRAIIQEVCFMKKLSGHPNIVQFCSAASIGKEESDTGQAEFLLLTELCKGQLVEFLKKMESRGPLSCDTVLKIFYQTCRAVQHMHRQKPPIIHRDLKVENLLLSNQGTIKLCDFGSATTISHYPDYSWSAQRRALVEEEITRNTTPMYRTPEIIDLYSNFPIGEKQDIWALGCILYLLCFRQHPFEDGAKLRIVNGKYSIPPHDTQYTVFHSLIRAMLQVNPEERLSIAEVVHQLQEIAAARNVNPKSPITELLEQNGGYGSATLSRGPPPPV

B1: NbGAK_4 (VHH)
VHH: QVQLQESGGGSVQAGGSLRLSCGASEYTSRMGWFRQAPGAEREGVACIHRQSNLSYYSDSVRGRFTISQDNAKTTAFLLMSSLKPEDTAIYYCATTTDCAAFVERATAITAGQGTQVTVSS
notes: about 120 amino acids; structures of the complex with GAK deposited here (among PDB 4C57, 4C58, 4C59); From a GAK-immunised dromedary, phage display vector pMECS, which adds an HA and a His tag
B2: NbGAK_1 (VHH)
VHH: QVQLQESGGGLVQPGGSLRLSCSASGFKFNDSYMSWVRRVPGKGLEWVAGIWEDSSAAHYRDSVKGRFTISRDNAKNMLYLQMSSLKSDDTGLYYCVRRGYSGDYRPINNPSSQGTQVTVSS
notes: about 120 amino acids; structure of the complex with GAK deposited here (one of PDB 4C57, 4C58, 4C59); From a GAK-immunised dromedary, phage display vector pMECS, which adds an HA and a His tag

What was measured:
[1] = molecular target: T1, Biotinylated GAK (cyclin G-associated …); assay: SPR; same SPR experiment as the kinetic fit (biotinylated GAK on CAP chip, 25°C, 50 mM Tris/HCl pH 7.4, 150 mM NaCl); steady-state analysis; conditions: both partners purified
[2] = molecular target: T1, Biotinylated GAK (cyclin G-associated …); assay: SPR; Biacore 3000, 25°C, 30 μl/min; biotinylated GAK captured on CAP chip (60-120 RU); nanobodies injected in serial 2-fold dilutions for 3 min; 50 mM Tris/HCl pH 7.4, 150 mM NaCl, 50 μM EDTA, 0.005% Tween 20; kinetic global fit, 1:1 Langmuir model; conditions: both partners purified

| Binder | Kd [1] | Kd [2] |
| --- | --- | --- |
| B1 | 12.8 nM | 10.3 nM |
| B2 | 60.3 nM | 59.9 nM |
